One block for each binder: values may come before it.
Legend:
[1] = biological target: T1, cynomolgus monkey CD3 (cynomolgus monkey, UniProt Q95LI5 22-198); assay: flow cytometry on cynomolgus monkey PBMC, Penta-His Alexa Fluor 488 detection, rMFI = MFI minus sample without antibody
T1 construct: whole, on cells; CD3 complex on cynomolgus monkey PBMC; also called cynomolgus monkey CD3 (PBMC); cynomolgus monkey CD3-expressing cells

[2] = biological target: T2, human CD3 (human, UniProt P07766 23-207); assay: flow cytometry on human PBMC (dead and CD19-positive cells excluded), Penta-His Alexa Fluor 488 detection, rMFI = MFI minus sample without antibody
T2 construct: CD3 complex on human PBMC; also called human CD3 (PBMC); human CD3-expressing cells
Procedure: Commercially available human PBMC (Cellular Technology Limited) was adjusted to an appropriate concentration with PBS containing 5% FBS. LIVE/DEAD Fixable Near-IR Dead Cell Stain Kit (Thermo Fisher Scientific Inc.) and an anti-CD19 antibody (Beckman Coulter Inc.) were added to the cells, which were then left standing at 4° C. for 30 minutes. The cells were washed twice with PBS containing 5% FBS, then adjusted to a concentration of 1×10⁶ cells/mL with PBS containing 5% FBS, inoculated in an amount of 100 μL/well to a 96-well U-bottomed microplate, and centrifuged to remove a supernatant. Each anti-GPRC5D-anti-CD3 bispecific molecule (C2037-C3E7034 to C3022-C3E7036 prepared in Example 12) diluted with PBS containing 5% FBS were added thereto in an amount of 100 μL/well, and the plate was left standing at 4° C. for 60 minutes. The cells were washed twice with PBS containing 5% FBS. Then, Penta-His Alexa Fluor 488 (Qiagen N.V.) diluted with PBS containing 5% FBS was added thereto in an amount of 30 μL/well, and the plate was left standing at 4° C. for 30 minutes. […] The data was analyzed using Flowjo (Tree Star, Inc.). The mean fluorescence intensity (MFI) of Alexa Fluor 488 in a fraction free from dead cells and CD19-positive cells was calculated. […]

[3] = biological target: T3, human GPRC5D (human, UniProt Q9NZD1 1-345); assay: flow cytometry on A4/Fuk cells (endogenous human GPRC5D), Penta-His Alexa Fluor 488 detection, rMFI = MFI minus sample without antibody
T3 construct: whole, on cells; also called hGPRC5D; G-protein coupled receptor family C group 5 member D
Procedure: Lymphoma cell line A4/Fuk cells (JCRB Cell Bank) were adjusted to an appropriate concentration with PBS containing 5% FBS. LIVE/DEAD Fixable Near-IR Dead Cell Stain Kit was added to the cells, which were then left standing at 4° C. for 30 minutes. The cells were washed twice with PBS containing 5% FBS, then adjusted to a concentration of 1×10⁶ cells/mL with PBS containing 5% FBS, inoculated in an amount of 100 μL/well to a 96-well U-bottomed microplate, and centrifuged to remove a supernatant. Each anti-GPRC5D-anti-CD3 bispecific molecule (C2037-C3E7034 to C3022-C3E7036 prepared in Example 12) diluted with PBS containing 5% FBS were added thereto in an amount of 100 μL/well, and the plate was left standing at 4° C. for 60 minutes. The cells were washed twice with PBS containing 5% FBS. Then, Penta-His Alexa Fluor 488 diluted with PBS containing 5% FBS was added thereto in an amount of 30 μL/well, and the plate was left standing at 4° C. for 30 minutes. The cells were washed twice with PBS containing 5% FBS and then resuspended in PBS containing 5% FBS, followed by detection using a flow cytometer (FACSCanto™ II). The data was analyzed using Flowjo. The mean fluorescence intensity (MFI) of Alexa Fluor 488 in a fraction free from dead cells was calculated. The MFI value of the antibody-unsupplemented sample was subtracted from the MFI value of the antibody-supplemented sample to calculate a relative value of MFI (rMFI).

[4] = biological target: T3, human GPRC5D; assay: flow cytometry, KHM-1B cells
Procedure: Human multiple myeloma cell line KHM-1B cells (JCRB Cell Bank) expressing GPRC5D were adjusted to a concentration of 5×10⁶ cells/mL with PBS containing 5% FBS, inoculated in an amount of 100 μL/well to a 96-well U-bottomed microplate, and centrifuged to remove a supernatant. Each rat anti-GPRC5D antibody (2A4, 2B1, and 7B4) adjusted to 0.32 ng/mL to 10 μg/mL in Example 1)-7 was added thereto in an amount of 100 μL/well, and the plate was left standing at 4° C. for 1 hour. The cells were washed twice with PBS containing 5% FBS. Then, PE Goat Anti-Rat Ab (Becton, Dickinson and Company) diluted 100-fold with PBS containing 5% FBS was added thereto at a concentration of 100 μL/well, and the plate was left standing at 4° C. for 1 hour. The cells were washed twice with PBS containing 5% FBS and then resuspended in PBS containing 5% FBS, followed by detection using a flow cytometer (FACSCanto™ II; Becton, Dickinson and Company). The data was analyzed using Flowjo (Tree Star, Inc.). The PE fluorescence intensity of the cell fraction was plotted to a histogram, and the mean fluorescence intensity (MFI) was calculated.

[5] = biological target: T4, human GPRC5D amino-terminal peptide …(Biotin)-NH2, lacking an intramolecular disulfide bond (human, biotinylated carboxy terminus, C-terminal amide; no intramolecularly formed disulfide bond); assay: ELISA, immobilised biotinylated peptide
T4 construct: Sigma-Aldrich synthetic peptide; also called amino-terminal peptide of human GPRC5D (disulfide bond absent)
T4 peptide: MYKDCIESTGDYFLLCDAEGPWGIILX
Source text: (§1) Epitopes bound by the obtained rat anti-GPRC5D antibodies (2A4, 2B1, and 7B4) were identified using a human GPRC5D amino-terminal peptide […](Biotin)-NH₂ (Sigma-Aldrich Corp.) (SEQ ID NO: 1 of the Sequence Listing; FIG. 2) having a biotinylated carboxy-terminal peptide and lacking an intramolecularly formed disulfide bond, and a human GPRC5D amino-terminal peptide […]-K(Biotin)-NH₂ (Peptide Institute, Inc.) (SEQ ID NO: 2 of the Sequence Listing; FIG. 3) having a lysine-containing biotinylated carboxy terminus and having an intramolecularly formed disulfide bond. Each peptide diluted with PBS was added to Nunc Immobilizer (Thermo Fisher Scientific Inc.), and the plate was left standing at room temperature for 1 hour. After washing three times with PBST, […] containing 1% BSA was added thereto, and the plate was left standing at room temperature for 1 hour. After washing three times with PBST, each rat anti-GPRC5D antibody (2A4, 2B1, and 7B4) prepared in Example 1)-7 and diluted to 0.1 ng/mL to 1 μg/mL with PBS was added thereto, and the plate was left standing at room temperature for 1 hour. After washing three times with PBST, Anti-Rat IgG, HRP-Linked Whole Ab Goat (GE Healthcare Bio-Sciences Corp.) diluted 500-fold with PBS was added thereto, and the plate was left standing at room temperature for 1 hour. After washing three times with PBST, SuperSignal™ ELISA Pico Chemiluminescent Substrate (Thermo Fisher Scientific Inc.) was added thereto, and the luminescence was measured using a plate reader (ENVISION; PerkinElmer, Inc.).

[6] = biological target: T5, human GPRC5D amino-terminal peptide MYKDCIESTGDYFLLCDAEGPWGIILE-K(Biotin)-NH2, having an intramolecular … (human, C-terminal lysine carrying biotin, C-terminal amide; intramolecularly formed disulfide bond); assay: ELISA, immobilised biotinylated peptide
T5 construct: Peptide Institute synthetic peptide; also called amino-terminal peptide of biotinylated human GPRC5D (disulfide bond present)
T5 peptide: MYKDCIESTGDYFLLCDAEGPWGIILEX
Source text: as §1

[7] = biological target: T3, human GPRC5D; assay: flow cytometry, KMS-34 cells

T2 sequence (P07766 23-207 limits assumed): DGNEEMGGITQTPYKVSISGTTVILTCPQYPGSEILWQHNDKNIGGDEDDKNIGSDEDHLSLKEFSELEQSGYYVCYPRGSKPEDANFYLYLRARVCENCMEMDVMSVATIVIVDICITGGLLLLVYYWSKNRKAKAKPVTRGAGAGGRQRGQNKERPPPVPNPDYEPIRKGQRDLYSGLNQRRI
T1 sequence (Q95LI5 22-198): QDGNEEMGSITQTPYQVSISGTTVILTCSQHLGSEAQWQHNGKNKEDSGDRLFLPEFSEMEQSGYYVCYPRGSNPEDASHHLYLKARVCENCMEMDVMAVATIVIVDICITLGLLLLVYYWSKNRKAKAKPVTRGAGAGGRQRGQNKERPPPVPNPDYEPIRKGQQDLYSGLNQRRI

EC50 (read off the curve) [1]: ~20 nM
EC50 (read off the curve) [2]: ~0.3 nM
binding result [3]: binds
B1: anti-GPRC5D-anti-CD3 bispecific molecule C3022-C3E7034 (bispecific antibody)
scFv: GQVQLVQSGAEVKKPGASVKVSCKASGYTFTGYYMHWVRQAPGQGLEWMGRINPNSGGTNYAQKFQGRVTMTRDTSISTAYMELSGLRSDDTAVYYCASGSVRHPWGQGTLVTVSSGGGGSGGGGSGGGGSQPVLTQPPSASGTPGQRVTISCSGSRSNIGGNIVSWYQQFPGTAPRLLTYADNQRPSGVPDRFSGSKSGTSASLAISGLQSEDEADYYCAAWDDSLNGVVFGGGTKLTVLGGGGSEVQLVESGGGLVQPGGSLRLSCAASGVTFNYYGMSWIRQAPGKGLEWVASITNSGGRIYYPDSVKGRFTISRENTQKTLYLQMNSLRAEDTAVYYCTLDGRDGWVAYWGQGTLVTVSSGGGGSGGGGSGGGGSNFMLTQPHSVSESPGKTVTISCKRNTGNIGSNYVNWYQQHEGSSPTTIIYRDDKRPDGVSDRFSGSIDRSSKSASLTISNLKTEDEADYFCQSYSSGFIFGGGTKLTVLGAAAGAGGDYKDDDDKGAAAHHHHHH
notes: Tandem scFv

EC50 (read off the curve) [2]: ~0.4 nM
binding result [3]: binds
B2: anti-GPRC5D-anti-CD3 bispecific molecule C3048-C3E7034 (bispecific antibody)
scFv: GQVQLVQSGAEVKKPGSSVKVSCKASGGTFSRYAISWVRQAPGQGLEWMGGIIPIFGTANYAQKFQGRVTITADQSTRTAYMDLGRLRSEDTAVYYCALEGFRDSLKRNPFDIWGQGTMVTVSSGGGGSGGGGSGGGGSQSVVTQPPSVSAAPGQKVTISCSGGTTNIGSNYVSWYQQLPGTAPKFLMYENNKRPSGIPDRFSGSKSGTSATLAITGLQTGDEATYYCSTWDSSLNTGLFGGGTKLTVLGGGGSEVQLVESGGGLVQPGGSLRLSCAASGVTFNYYGMSWIRQAPGKGLEWVASITNSGGRIYYPDSVKGRFTISRENTQKTLYLQMNSLRAEDTAVYYCTLDGRDGWVAYWGQGTLVTVSSGGGGSGGGGSGGGGSNFMLTQPHSVSESPGKTVTISCKRNTGNIGSNYVNWYQQHEGSSPTTIIYRDDKRPDGVSDRFSGSIDRSSKSASLTISNLKTEDEADYFCQSYSSGFIFGGGTKLTVLGAAAGAGGDYKDDDDKGAAAHHHHHH
notes: Tandem scFv

Kd [4]: 0.5 nM
MFI (max) [4]: 1150
Kd [7]: 1.4 nM
MFI (max) [7]: 2060
B3: rat anti-GPRC5D antibody 2A4 (antibody, V domains shown)
VH: QVQLQQSGAELAKPGTSVKLSCKASGYTFTSYYIYWVKQRPGQGLEWIGYVYPGYGGTYYSDKFKGKATFTADTSSSTAYMLLGSLTPEDSAYYFCARRKGIIRGPGYFDYWGQGVMVTVSS
VL: DIQMTQSPASLSASLGETVSIECLASEGISNSLAWYQQKPGKSPQLLIYGASSLQDGVPSRFSGSGSGTQYSLKISGMQPEDEGLYYCQQGYKYPPTFGGGTKLELK
notes: Rat IgG2b, kappa chain
binding result [5]: no binding (tested: 0.1 ng/mL to 1 µg/mL)
binding result [6]: no binding (tested: 0.1 ng/mL to 1 µg/mL)

Kd [4]: 1.3 nM
MFI (max) [4]: 2490
Kd [7]: 2.1 nM
MFI (max) [7]: 4470
B4: rat anti-GPRC5D antibody 7B4 (antibody, V domains shown)
VH: EIHLQESGPGLVKPSQSLSLTCSVTGYTITSGYDWSWIRKFPGNKMEWMAYMSYRGSTNYNPSLKSRISITRDTSKNQFFLQLNSVTTEDTATYYCALTRTYWYNYYYVLDAWGQGASVTVSS
VL: DIQMTQSPSFLSASVGERVTLSCKASQNINKYLDWYQQKLGEPPKLLIYNTNNLHTGIPSRFSGSGSGTDYTLTISGLQPEDVATYFCLQRNSWYTFGAGTKLELK
notes: Rat IgG2b, kappa chain
binding result [5]: no binding (tested: 0.1 ng/mL to 1 µg/mL)
binding result [6]: no binding (tested: 0.1 ng/mL to 1 µg/mL)

From patent US20190367612A1 (Daiichi Sankyo, published 2019)
